This data set deals with the molecule itself. The experiment in a line: SAXS.

B1: SmFtsZ-WT (full-length Streptococcus mutans FtsZ) (natural protein)
chain: MAFSFDAASVQGAVIKVIGVGGGGGNAINRMIDEGVAGVEFIAANTDIQALSSSKAETVIQLGPKLTRGLGAGGQPEIGRKAAEESEEALTEALTGADMVFITAGMGGGSGTGAAPVIARIAKGLGSLTVAVVTRPFGFEGSKRGNYAIEGINELRDEVDTLLIISNNNLLEIVDKKTPLLEALSEADNVLRQGVQGITDLITSPGLINLDFADVKTVMASKGNALMGIGIGTGEERVVEAARKAIYSPLLETTIDGAEDVIVNVTGGLDMTLTEAEEASEIVNQAAGHGVNIWLGTSIDDSMKDEIRVTVVATGVRPDKADQVSGIRRQASSYTQPRAQQQAPSSNSAQPNFERRQNFDFDLNESPEMPAAEPQQTQSSSEPQQSAFGDWNLRRENIARPTEGEIDSQLKMSSFSADSDDDDELETPPFFKNR
Consider B1, for which the binding result is listed as “binds”.

B2: SmFtsZ-R68A (natural protein)
chain: MAFSFDAASVQGAVIKVIGVGGGGGNAINRMIDEGVAGVEFIAANTDIQALSSSKAETVIQLGPKLTAGLGAGGQPEIGRKAAEESEEALTEALTGADMVFITAGMGGGSGTGAAPVIARIAKGLGSLTVAVVTRPFGFEGSKRGNYAIEGINELRDEVDTLLIISNNNLLEIVDKKTPLLEALSEADNVLRQGVQGITDLITSPGLINLDFADVKTVMASKGNALMGIGIGTGEERVVEAARKAIYSPLLETTIDGAEDVIVNVTGGLDMTLTEAEEASEIVNQAAGHGVNIWLGTSIDDSMKDEIRVTVVATGVRPDKADQVSGIRRQASSYTQPRAQQQAPSSNSAQPNFERRQNFDFDLNESPEMPAAEPQQTQSSSEPQQSAFGDWNLRRENIARPTEGEIDSQLKMSSFSADSDDDDELETPPFFKNR
As for B2, the binding result is recorded as “binds”.

These data come from doi:10.1101/2025.01.26.634952 (bioRxiv, 2025).
